# In patent US20200397827A1, “CHONDROCYTE PROLIFERATION PROMOTER, CHONDROCYTE PROLIFERATION PROMOTION METHOD, SCREENING METHOD FOR CHONDROCYTE PROLIFERATION PROMOTERS” (Tokyo University of Science Foundation, priority 2018, published 2020):
# Key:
# Assay type in all cases: cell-based, mouse
# ATDC5 cells [1] = assay: Cell proliferation of ATDC5 cells in the presence or absence of AdipoR1 blocker
# Procedure: ATDC5 cells were seeded into a 12-well plate at a cell density of 1×10^4/well and cultured in the presence or absence of 10 μg/ml AdipoR1 blocker (GeneTex) and in the presence or absence of 100 ng/ml recombinant human CTRP6 (Aviscera Bioscience) for 2 days (all n=4). As a medium, a HAM's F-12 medium containing 5% FBS and 1% penicillin/streptomycin was used.
# Furthermore, 100 ng/ml adiponectin (BioVendor), 100 ng/ml AdipoRon (AdipoGen), or 50 ng/ml recombinant human CTRP3 (Aviscera Bioscience) was used instead of 100 ng/ml recombinant human CTRP6 to culture in the same manner as described above (all n=4). Meanwhile, when the AdipoRon was used, a culture period was 1 day.
# After culturing, the number of cells was counted with a hemocytometer.
# ATDC5 cells [2] = assay: Effect of MAPK inhibitor on cell proliferation of chondrocyte; settings: FIG. 3C
# Procedure: ATDC5 cells were seeded into a 48-well plate at a cell density of 2×10^4/well and cultured in the presence or absence of 50 ng/ml recombinant human CTRP6 (Aviscera Bioscience) for 2 days. A HAM's F-12 medium containing 5% FBS and 1% penicillin/streptomycin was used as a medium, and a carrier (DMSO), 1 μM ERK1/2 inhibitor (U0126, Sigma), 1 μM JNK inhibitor (SP600125, Sigma), or 1 μM p38 inhibitor (SB239063, Sigma) was further added thereto (all n=4).
# After 2 day-culture, the number of cells was counted with a hemocytometer.
# ERK1/2 [3] = assay: ERK phosphorylation in ATDC5 cells with adiponectin receptor siRNA introduced, western blotting; settings: 10 ng/ml, 15 min
# Procedure: ATDC5 cells into which the siRNA had been introduced were seeded into a 60 mm Petri dish at a cell density of 1×10^6/well and cultured in a serum-free HAM's F-12 medium for 4 hours. Then, the cells were washed with PBS and then cultured in a serum-free HAM's F-12 medium containing 10 ng/ml recombinant human CTRP6 (Aviscera Bioscience) for 15 min. Then, the cells were washed with a phosphatase-inhibiting buffer supplemented with PhosSTOP (Sigma) and then lysed with a lysis buffer (0.1% TritonX-100, 100 mM NaCl, 50 mM Tris-HCl (pH 7.5)). Western blotting analysis was performed in the same manner as in Test Example 3 (2).
# [4] = system: primary chondrocytes of Clqtnf6−/− mice; assay: Chondrogenesis of primary chondrocytes (Alcian blue staining); settings: 0, 2.5, 5, 10 μg/ml, 7 days, FIG. 2B
# Procedure: Costal cartilage tissues from neonates (5 to 6 day-old) of the Clqtnf6^−/− mice and the wild-type mice were enzymatically digested with DMEM containing 0.5 mg/ml collagenase D to thereby obtain primary chondrocytes. Then, 2×10^5 cells were suspended into 10 μL of DMEM containing 10% FCS, seeded into a 24-well plate, and cultured at 37° C. for 2 hours (both n=3). Then, DMEM containing 10% FCS was added thereto at a volume of 500 μL per well and culturing was continued for 7 days. Then, the cells were fixed with 10% neutral buffered formalin, washed with 0.1 N HCl, and then stained with a 1% Alcian blue 8GX solution (Sigma-Aldrich) in order to confirm chondrogenesis.
# In the same manner as described above, primary chondrocytes were obtained from the Clqtnf6^−/− mice, and then 2×10^5 cells were suspended into 10 μL of DMEM containing 10% FCS, seeded into a 24-well plate, and cultured at 37° C. for 2 hours. Then, DMEMs containing 10% FCS and various concentrations (0, 2.5, 5, 10 μg/ml; all n=3) of recombinant human CTRP6 (Aviscera Bioscience) were added thereto at a volume of 500 μL per well and culturing was continued for 7 days. Then, the cells were fixed with 10% neutral buffered formalin, washed with 0.1 N HCl, and then stained with a 1% Alcian blue 8GX solution (Sigma-Aldrich) in order to confirm chondrogenesis.
# ERK1/2 [5] = assay: Phosphorylation of MAPK, western blotting; settings: ATDC5; 10 ng/ml; 1, 5, 15 or 30 min; FIG. 3B
# Procedure: ATDC5 cells were seeded into a 60 mm Petri dish at a cell density of 1×10^6/well and cultured in a serum-free HAM's F-12 medium for 4 hours. Then, the resultant was washed with PBS and then cultured in a serum-free HAM's F-12 medium containing 10 ng/ml recombinant human CTRP6 (Aviscera Bioscience) for 1 min, 5 min, 15 min, or 30 min. Then, the cells were washed with a phosphatase-inhibiting buffer supplemented with PhosSTOP (Sigma) and then lysed with a lysis buffer (0.1% TritonX-100, 100 mM NaCl, 50 mM Tris-HCl (pH 7.5)).
# Then, the resultant cell lysate was subjected to electrophoresis on a 12.5% SDS-PAGE gel and proteins were transferred onto a PVDF membrane. The membrane onto which the proteins had been transferred was blocked by shaking in 5% BSA/TBS at room temperature for 1 hour. After blocking, the membrane was shaken in the presence of a primary antibody (rabbit monoclonal antibody) at room temperature for 1 hour to thereby undergo a primary antibody reaction. […] Intensity of each band was quantified with ImageJ software (NIH).
# ATDC5 cells [6] = assay: Cell proliferation of ATDC5 cells with adiponectin receptor siRNA introduced, recombinant human CTRP6; settings: 100 ng/ml, 1 day
# Procedure: ATDC5 cells were seeded into a 24-well plate at a cell density of […] and cultured in a HAM's F-12 medium containing 2.5% FBS for 24 hours. After culturing, 30 pmol of AdipoR1 siRNA, 30 pmol of AdipoR2 siRNA, 30 pmol of control siRNA-1, 6 pmol of AdipoR3 siRNA, 6 pmol of AdipoR4 siRNA, or 6 pmol of control siRNA-2 was introduced (transfected) thereinto and culturing was continued for 48 hours. Lipofectamine RNAiMAX (Invitrogen) was used to introduce the siRNAs.
# Meanwhile, the AdipoR3 siRNA, the AdipoR4 siRNA, and the control siRNA-2 were purchased from IDT Teck (TriTECTa RNAi Kit). Base sequences of the AdipoR1 siRNA, the AdipoR2 siRNA, and the control siRNA-1 were as follows:
# (§1) Forty-eight hours after the introduction of the siRNAs, the ATDC5 cells were seeded into a 48-well plate at a cell density of 2×10^4/well and cultured in the presence or absence of 100 ng/ml recombinant human CTRP6 (Aviscera Bioscience) for 1 day (all n=4). After that, the number of cells was counted with a hemocytometer.
# ATDC5 cells [7] = assay: Cell proliferation of chondrocyte line, cell count with hemocytometer; settings: 0, 100, 500 ng/ml, 4 and 7 day-culture, FIG. 3A
# Procedure: In Test Example 3, a function of CTRP6 was analyzed using a mouse chondrocyte line ATDC5.
# ATDC5 cells were seeded into a 12-well plate at a cell density of 5×10^4/well and cultured in the presence of various concentrations (0, 100, 500 ng/ml; all n=3) of recombinant human CTRP6 (Aviscera Bioscience). As a medium, a HAM's F-12 medium containing 5% FBS and 1% penicillin/streptomycin was used.
# After 4 and 7 day-culture, the number of cells was counted with a hemocytometer.
# ATDC5 cells [8] = assay: Cell proliferation of ATDC5 cells with adiponectin receptor siRNA introduced, recombinant human CTRP3; settings: 50 ng/ml, 2 days, FIG. 6A
# Procedure: AdipoR1 siRNA, AdipoR2 siRNA, control siRNA-1, AdipoR3 siRNA, AdipoR4 siRNA, or control siRNA-2 was introduced (transfected) into ATDC5 cells in the same manner as in Test Example 4 (1).
# as §1, with “50” for “100”, “CTRP3” for “CTRP6”, “2 days” for “1 day”
# [9] = 100 ng/ml, 2 days, FIGS. 5A, 5B
molecule,measurement,setting,value
"O=C(COc1ccc(C(=O)c2ccccc2)cc1)NC1CCN(Cc2ccccc2)CC1 [AdipoRon, reference compound]",number of cells (cell proliferation),"ATDC5 cells [1]; 100 ng/ml, culture period 1 day, FIG. 5C",facilitated cell proliferation
"N#CC(=C(/N)Sc1ccccc1N)/C(C#N)=C(/N)Sc1ccccc1N [ERK1/2 inhibitor, U0126, reference compound]",number of cells (cell proliferation) with MAPK inhibitor added,"ATDC5 cells [2]; 1 μM inhibitor, presence or absence of 50 ng/ml recombinant human CTRP6, 2 days",inhibited cell proliferation
"recombinant human CTRP6: recombinant human CTRP6 (Aviscera Bioscience), C1q/TNF-related protein family; amino acid sequence SEQ ID NO: 3 (protein, listed as Homo sapiens) MQWLRVRESPGEATGHRVTMGTAALGPVWAALLLFLLMCEIPMVELTFDRAVASGCQRCCDSEDPLDPAHVSSASSSGRPHALPEIRPYINITILKGDKGDPGPMGLPGYMGREGPQGEPGPQGSKGDKGEMGSPGAPCQKRFFAFSVGRKTALHSGEDFQTLLFERVFVNLDGCFDMATGQFAAPLRGIYFFSLNVHSWNYKETYVHIMHNQKEAVILYAQPSERSIMQSQSVMLDLAYGDRVWVRLFKRQRENAIYSNDFDTYITFSGHLIKAEDD","phosphorylation of ERK1/2, AdipoR1 siRNA introduced","ERK1/2 [3]; ATDC5 with AdipoR1 siRNA, FIG. 4C",phosphorylation of ERK1/2 was not facilitated
same,"phosphorylation of ERK1/2, AdipoR4 siRNA introduced","ERK1/2 [3]; ATDC5 with AdipoR4 siRNA, FIG. 4D",phosphorylation of ERK1/2 was not facilitated
same,chondrogenesis (intensity of Alcian blue stained cells),[4],chondrogenesis was promoted in a recombinant human CTRP6 concentration-dependent manner
same,number of cells (cell proliferation),"ATDC5 cells [2]; 50 ng/ml, 2 days",facilitated cell proliferation
same,phosphorylation of MAPKs (ERK1/2),ERK1/2 [5],facilitated phosphorylation of ERK1/2
same,number of cells (cell proliferation),ATDC5 cells [1]; [9],facilitated cell proliferation
same,number of cells (cell proliferation),"ATDC5 cells [1]; 2 days, second statement of b158 (FIG. 5D, 50 ng/ml recombinant human CTRP3)",also facilitated
same,"number of cells (cell proliferation), AdipoR1 siRNA introduced","ATDC5 cells [6]; ATDC5 with AdipoR1 siRNA, FIG. 4A",facilitation of cell proliferation was not confirmed
same,"number of cells (cell proliferation), AdipoR4 siRNA introduced","ATDC5 cells [6]; ATDC5 with AdipoR4 siRNA, FIG. 4B",facilitation of cell proliferation was not confirmed
same,number of cells (cell proliferation),ATDC5 cells [7],facilitated cell proliferation
"adiponectin: adiponectin (BioVendor), protein of the CTRP family; human amino acid sequence SEQ ID NO: 1 (protein, listed as Homo sapiens) MLLLGAVLLLLALPGHDQETTTQGPGVLLPLPKGACTGWMAGIPGHPGHNGAPGRDGRDGTPGEKGEKGDPGLIGPKGDIGETGVPGAEGPRGFPGIQGRKGEPGEGAYVYRSAFSVGLETYVTIPNMPIRFTKIFYNQQNHYDGSTGKFHCNIPGLYYFAYHITVYMKDVKVSLFKKDKAMLFTYDQYQENNVDQASGSVLLHLEVGDQVWLQVYGEGERNGLYADNDNDSTFTGFLLYHDTN",number of cells (cell proliferation),ATDC5 cells [1]; [9],facilitated cell proliferation
"recombinant human CTRP3: recombinant human CTRP3 (Aviscera Bioscience), C1q/TNF-related protein family; amino acid sequence SEQ ID NO: 2 (protein, listed as Homo sapiens) MLWRQLIYWQLLALFFLPFCLCQDEYMESPQTGGLPPDCSKCCHGDYSFRGYQGPPGPPGPPGIPGNHGNNGNNGATGHEGAKGEKGDKGDLGPRGERGQHGPKGEKGYPGIPPELQIAFMASLATHFSNQNSGIIFSSVETNIGNFFDVMTGRFGAPVSGVYFFTFSMMKHEDVEEVYVYLMHNGNTVFSMYSYEMKGKSDTSSNHAVLKLAKGDEVWLRMGNGALHGDHQRFSTFAGFLLFETK","number of cells (cell proliferation), AdipoR2 siRNA introduced",ATDC5 cells [8],facilitation of cell proliferation was not confirmed
